Reference: the nanobody polyreactivity screen of Harvey et al. (2022)

Assay: yeast display, Sf9 membrane polyspecificity reagent, FACS + sequencing; frameworks hold sequencing errors
Method in brief: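 After 36–48 hours of galactose induction, yeast (Saccharomyces cerevisiae BJ5465) displaying a synthetic nanobody library were stained at 4 °C for 1 hour with 10% biotinylated, detergent-solubilized Sf9 membrane reagent. Streptavidin microbeads enriched the stained cells before FACS sorting into low and high (top ~1%) gates on anti-HA and streptavidin fluorescence. Each clone's polyreactivity label reflects its gate of origin.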

QVQLVESGGGLVQAGGSLRLICAASGRIIGKNAMGWYRQARGKERELVAAIRYNGGRTYYADSVKGRFTISRDNAKNTVYLQMNSLKPEDTAVYYCAARWRSWRYKYDYWGQGTQVTVSS
polyreactivity (PSR sort gate): high polyreactivity

QVQLVESGGGLVQAGGSLRLSCAASGSIFSVYAMGWYRQAPGKERELVATITWSGGRTYYADSVKGRYTISRDNAKNTVYLQMNSLKPEDTAVYYCAATSWWATTGFDYWGQGTQVTVSS
polyreactivity (PSR sort gate): low polyreactivity

QVQLVESGGGLVQAGGSLRLSCAASGSTFTKNAMGWYRPAPGKERELVAVISSGGSTNYADSVKGRFTISRDNAKNTVDLQMNSLKPEDTAVYYCAAEHYILYDYLWAYDYWGQGTQVTVSS
polyreactivity (PSR sort gate): high polyreactivity

QVQLVESGGGLVQAGGSLRLSCAASGSIFPEYAMGWYRQAPGKERELVAAITTSGGSTYYADSVKGRFTISRDNAKNTVYLQMNSLKPEDTAVYYCAVEYLVYLDYTYDYWGQGTQVTVSS
polyreactivity (PSR sort gate): low polyreactivity

QVQLVESGGGLVQGGGSLRLSCAASGRNFKYNTMGWYRQAPGKERDLVAAISLSSGSGGGTRYADSVKGRFTISRDNAKNSVYLQMNSLKPEDSAVYYCAARHRYTNEYDYWGHGTQVTVSS
polyreactivity (PSR sort gate): low polyreactivity

QVQLVESGGGLVQAGGSLRLSCAASGIIFRGYAMGRNRHAPGKERELVARISTSGGSTYYADSVKGRFTISRDNAKNTVYLQMNSLKPEDTAVYYCAATRSFLTSWYYRSTSTRDYWGQGTQVTVSS
polyreactivity (PSR sort gate): high polyreactivity

QVQLVESGGGLVQAGGSLRLSCAASGRTFLYNAMGWYIQAPGKERELVAAISWNGGRTYYADSVKGRFTISRDNAKNTVYLQMNSLKPEDTAVYYCAKVDQLYNSRYDYWGQGTQVTVSS
polyreactivity (PSR sort gate): high polyreactivity

QVQLVESGGGLVQAGGSLRLSCAASGSIFSYYALGWYRQAPGKERELVAAISYSGGTTYYADSVKGRFTISRDNAKNTVYLQMNSLKPEDTAVYYCAAQWWWNRPVRYEYWGQGTQVTVSS
polyreactivity (PSR sort gate): low polyreactivity

QVQLVESGGGLVQAGGSLRLSCAASGFIFPGYAMGWYRQAPGKERELVAVISGSGARTYYADSVKGRFTISRDNAKNTVYLQMNSLKPEDTAVYYCATDYCRTRQYRPGDYWGQGTQVTVSS
polyreactivity (PSR sort gate): high polyreactivity

QVQLVESGGGLVQAGGILRLSCAASGRIFSRYAMGWYRQAPGKERELVAAISSSGTTTYYADSVKARFTISRDNAKNTVYLQMNSLKPEDTAVYYCAVEDRWYGPGYEYWGQGTQVTVSS
polyreactivity (PSR sort gate): high polyreactivity

QVQLVESGGGLVQAGGSLRLSCAASGSIFDPNAMGWYRQAPGKERELVAAISTSTGNTYYADSVKGRCTISRDNAKNTVYLQMNSLKPEDTAVYYCAAKGTPSYGSYHYDMDYWGQGTQVTVSS
polyreactivity (PSR sort gate): low polyreactivity

QVQLVESGGGLVQAGGSLRLSCAASGFTFKFNTMGWYRQAPGKERELVAANSWRGGDTSYADSVKGRFTISRENAKNTVFLQMYSLKPEDNAVYYCAARSTSIGQRSLHYGYWGQGTQVTVSS
polyreactivity (PSR sort gate): low polyreactivity

QVQLVESCGGFVQAGGSLSLSCAASGSIYGRYGMGWYIQAPGKERELVAAITSGTRTNYADSVKGRFTISRDNAKNTVYLQMKSLKPEDTAVYYCYALRLRGNYEYGYWGQGTQVTVSS
polyreactivity (PSR sort gate): low polyreactivity

QVQLVESGGGLVQAGGSLPLSCAASGSIFFFNAMGWYRQATGKEREFVAAITSSSGRTYYADSVKGRFTISRDNANNTVYLQMNSLKPEDSAVYFCAAQVPEDTETVDYWGQGTQVTVSS
polyreactivity (PSR sort gate): low polyreactivity

QVQLVESGGGLVQAGGSHRLSCAATGFTFSYYSMGWYRQAPGKERELVAAITSSAGSTYYADTVKGRFTISRDNAKNTVYLQMNSLKPEDTAVYYCNAVYSKLNGGYDYWGQGTQVTVSS
polyreactivity (PSR sort gate): low polyreactivity

QVQLVESGGGLVQAGGSLRLSCAASGLIFVQYVMGWYRQAPGKERELVAAITEDGNTYYADSVKGRFTISRDNAKNTVYLQMNSLKPEDTAVYYCNAVLRSYDFWTGYGYWGQGTQVTVSS
polyreactivity (PSR sort gate): low polyreactivity

QVQLVESGGGLVQAGGSLRLSCAPSGLIFYGYAMGWYRQAPGKERELVAAISCSGGRTYYADSVKGRFTISRDNAKNTVYLQMNSLKPEDTAVYYCNVRNRYRPYLPFWPDDYWGQGTQVTVSS
polyreactivity (PSR sort gate): high polyreactivity
